Changes are numbered by the printed parent chain.
T1: IL-36R naturally expressed on OVCAR8 cells and on normal human epidermal keratinocytes (NHK cells) (human, UniProt Q9HB29 20-575)
T1 sequence (looked up): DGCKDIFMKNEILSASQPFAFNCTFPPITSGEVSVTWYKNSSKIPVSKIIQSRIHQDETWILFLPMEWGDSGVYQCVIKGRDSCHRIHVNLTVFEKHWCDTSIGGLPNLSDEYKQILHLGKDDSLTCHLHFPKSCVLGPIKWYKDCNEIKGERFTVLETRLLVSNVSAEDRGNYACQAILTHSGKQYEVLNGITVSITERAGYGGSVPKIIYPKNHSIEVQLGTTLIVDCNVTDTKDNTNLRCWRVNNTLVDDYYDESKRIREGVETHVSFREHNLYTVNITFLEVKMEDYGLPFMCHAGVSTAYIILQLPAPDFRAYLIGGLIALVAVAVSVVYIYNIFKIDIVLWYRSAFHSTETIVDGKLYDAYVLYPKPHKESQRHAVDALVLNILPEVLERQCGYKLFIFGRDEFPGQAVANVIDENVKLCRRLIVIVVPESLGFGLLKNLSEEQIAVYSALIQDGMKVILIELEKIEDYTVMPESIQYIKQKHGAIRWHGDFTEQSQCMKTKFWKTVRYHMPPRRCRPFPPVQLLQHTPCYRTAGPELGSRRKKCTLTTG

T2: Human IL-1Rrp2/IL-1R6 protein, His Tag (ACROBiosystems, IL2-H52H6) (human, UniProt Q9HB29 20-335)
T2 construct: Bought protein; the soluble protein is likely only the extracellular part; also called hIL-36R; human IL36R antigen; not shown: His tag
T2 sequence: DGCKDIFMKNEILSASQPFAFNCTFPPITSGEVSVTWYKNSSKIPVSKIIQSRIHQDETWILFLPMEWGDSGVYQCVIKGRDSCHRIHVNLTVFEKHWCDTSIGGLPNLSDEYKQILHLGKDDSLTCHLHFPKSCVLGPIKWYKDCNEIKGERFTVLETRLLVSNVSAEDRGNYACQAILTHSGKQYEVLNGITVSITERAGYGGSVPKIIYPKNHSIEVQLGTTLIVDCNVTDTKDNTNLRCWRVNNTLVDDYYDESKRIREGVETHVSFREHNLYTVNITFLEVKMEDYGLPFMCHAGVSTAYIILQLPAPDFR

B1: BI655130 (antibody, human IgG1, kappa, L234A L235A)
heavy: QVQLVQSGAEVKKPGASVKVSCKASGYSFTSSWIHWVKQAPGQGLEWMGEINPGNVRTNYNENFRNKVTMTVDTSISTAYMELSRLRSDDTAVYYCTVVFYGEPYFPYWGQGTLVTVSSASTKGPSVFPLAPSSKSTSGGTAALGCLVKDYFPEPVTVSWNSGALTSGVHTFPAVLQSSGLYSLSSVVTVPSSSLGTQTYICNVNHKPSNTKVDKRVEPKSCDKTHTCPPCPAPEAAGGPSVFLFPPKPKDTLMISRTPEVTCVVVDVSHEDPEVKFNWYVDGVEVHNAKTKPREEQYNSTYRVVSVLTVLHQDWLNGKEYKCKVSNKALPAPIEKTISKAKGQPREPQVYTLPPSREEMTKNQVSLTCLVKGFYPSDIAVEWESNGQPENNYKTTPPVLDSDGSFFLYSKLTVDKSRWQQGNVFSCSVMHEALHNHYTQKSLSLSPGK
light: QIVLTQSPGTLSLSPGERATMTCTASSSVSSSYFHWYQQKPGQAPRLWIYRTSRLASGVPDRFSGSGSGTDFTLTISRLEPEDAATYYCHQFHRSPLTFGAGTKLEIKRTVAAPSVFIFPPSDEQLKSGTASVVCLLNNFYPREAKVQWKVDNALQSGNSQESVTEQDSKDSTYSLSSTLTLSKADYEKHKVYACEVTHQGLSSPVTKSFNRGEC
notes: also called Spesolimab
B2: hz84C4-1.5 (antibody, human IgG4 S228P, kappa, V domains shown)
VH: QVQLVQSGAEVKKPGASVKVSCKVSGYFFTSYWMNWVNQAPGQGLEWMGMIHPYDSETRLAQKFKGRVTMTVDKSTSTVYMELSSLRSEDTAVYYCASSTTAFAYWGQGTLVTVSS
VL: DIQMTQSPSSLSASVGDRVTITCRASQDIGNALNWYQQKPGKAPKRLIYATSSLDPGVPSRFSGSRSGTDFTLTISSLQPEDFATYYCLQYASSPYTFGQGTKVEIKR
notes: Humanized, human IgG4 / kappa
B3: hz84C4-2.1 (antibody, human IgG4 S228P, kappa, V domains shown)
VH: B2 VH with V24A, N38R, L60Y, K65Q
VL: B2 VL with Y36L, F71Y
notes: Humanized, human IgG4 / kappa
B4: hz84C4-2.2 (antibody, human IgG4 S228P, kappa, V domains shown)
VH: B2 VH with V24A, N38R, M50Y, L60Y, K65Q
VL: B2 VL with Y36L, F71Y
notes: Humanized, human IgG4 / kappa
B5: hz84C4-2.4 (antibody, human IgG4 S228P, kappa, V domains shown)
VH: B2 VH with V24A, F28Y, N38R
VL: B2 VL with Y36L, F71Y
notes: Humanized, human IgG4 / kappa
B6: hz84C4-2.3 (antibody, human IgG4 S228P, kappa, V domains shown)
VH: B2 VH with V24A, N38R, H52Y, L60Y, K65Q
VL: B2 VL with Y36L, F71Y
notes: Humanized, human IgG4 / kappa
B7: hz84C4-2.5 (antibody, human IgG4 S228P, kappa, V domains shown)
VH: B2 VH
VL: B2 VL with Y36L, F71Y
notes: Humanized, human IgG4 / kappa
B8: chimeric 72C1 antibody (antibody, human IgG4 S228P, kappa)
heavy: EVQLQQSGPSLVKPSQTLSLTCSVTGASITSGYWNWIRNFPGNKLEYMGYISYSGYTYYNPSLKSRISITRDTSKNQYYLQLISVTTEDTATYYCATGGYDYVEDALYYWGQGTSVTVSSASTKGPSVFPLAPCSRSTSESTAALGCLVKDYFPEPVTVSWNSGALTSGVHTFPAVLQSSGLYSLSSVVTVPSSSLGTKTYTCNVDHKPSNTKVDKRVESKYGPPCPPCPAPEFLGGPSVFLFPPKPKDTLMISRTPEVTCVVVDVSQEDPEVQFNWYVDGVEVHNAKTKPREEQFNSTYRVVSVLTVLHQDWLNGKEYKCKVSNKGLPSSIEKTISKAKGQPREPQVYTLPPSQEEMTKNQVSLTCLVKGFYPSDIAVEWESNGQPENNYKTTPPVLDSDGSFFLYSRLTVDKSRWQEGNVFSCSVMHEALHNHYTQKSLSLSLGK
light: EILLTQSPAIMSATLGEKVTMSCRASSNVRYMYWYQLKSGASPKLWIYLTSNLASGVPARFSGSGSGTSYSLTISSVEAEDAATYFCQQFTTSPYTFGGGTKLEIKRTVAAPSVFIFPPSDEQLKSGTASVVCLLNNFYPREAKVQWKVDNALQSGNSQESVTEQDSKDSTYSLSSTLTLSKADYEKHKVYACEVTHQGLSSPVTKSFNRGEC
notes: Mouse variable regions on human IgG4 / kappa; also called xi72C1
B9: hz72C1-1.2 (antibody, human IgG4 S228P, kappa)
heavy: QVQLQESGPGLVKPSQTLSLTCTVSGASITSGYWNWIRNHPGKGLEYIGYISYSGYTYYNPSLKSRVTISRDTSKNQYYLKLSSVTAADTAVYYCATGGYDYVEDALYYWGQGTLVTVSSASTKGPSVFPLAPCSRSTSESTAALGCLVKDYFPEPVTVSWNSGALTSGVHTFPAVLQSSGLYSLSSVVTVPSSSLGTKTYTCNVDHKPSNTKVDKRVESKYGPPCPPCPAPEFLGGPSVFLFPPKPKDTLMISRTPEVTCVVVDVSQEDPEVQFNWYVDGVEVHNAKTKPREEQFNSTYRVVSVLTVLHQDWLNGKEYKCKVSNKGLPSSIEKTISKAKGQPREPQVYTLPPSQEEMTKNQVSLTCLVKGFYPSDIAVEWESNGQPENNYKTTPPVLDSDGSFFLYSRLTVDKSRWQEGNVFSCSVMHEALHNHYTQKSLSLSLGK
light: DIQMTQSPSSLSASVGDRVTITCRASSNVRYMYWYQQKPGKAPKLWIYLTSNLASGVPSRFSGSGSGTSYTLTISSLQPEDFATYYCQQFTTSPYTFGQGTKLEIKRTVAAPSVFIFPPSDEQLKSGTASVVCLLNNFYPREAKVQWKVDNALQSGNSQESVTEQDSKDSTYSLSSTLTLSKADYEKHKVYACEVTHQGLSSPVTKSFNRGEC
notes: Humanized, human IgG4 / kappa
B10: hz72C1-1.1 (antibody, human IgG4 S228P, kappa)
heavy: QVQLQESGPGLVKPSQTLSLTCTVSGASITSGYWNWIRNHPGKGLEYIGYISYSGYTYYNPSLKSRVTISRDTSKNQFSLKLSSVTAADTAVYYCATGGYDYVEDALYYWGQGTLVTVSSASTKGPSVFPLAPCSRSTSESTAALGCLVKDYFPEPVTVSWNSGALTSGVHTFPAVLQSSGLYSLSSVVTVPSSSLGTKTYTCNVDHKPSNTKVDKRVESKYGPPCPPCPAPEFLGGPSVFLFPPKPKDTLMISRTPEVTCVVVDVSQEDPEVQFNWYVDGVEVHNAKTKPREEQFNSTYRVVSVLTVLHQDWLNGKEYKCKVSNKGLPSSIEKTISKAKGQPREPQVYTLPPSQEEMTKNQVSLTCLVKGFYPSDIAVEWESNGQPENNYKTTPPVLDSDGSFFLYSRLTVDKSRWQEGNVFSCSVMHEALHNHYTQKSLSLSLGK
light: B9 light
notes: Humanized, human IgG4 / kappa; also called humanized 72C1 antibody 1.1
B11: hz72C1-2.3 (antibody, human IgG4 S228P, kappa)
heavy: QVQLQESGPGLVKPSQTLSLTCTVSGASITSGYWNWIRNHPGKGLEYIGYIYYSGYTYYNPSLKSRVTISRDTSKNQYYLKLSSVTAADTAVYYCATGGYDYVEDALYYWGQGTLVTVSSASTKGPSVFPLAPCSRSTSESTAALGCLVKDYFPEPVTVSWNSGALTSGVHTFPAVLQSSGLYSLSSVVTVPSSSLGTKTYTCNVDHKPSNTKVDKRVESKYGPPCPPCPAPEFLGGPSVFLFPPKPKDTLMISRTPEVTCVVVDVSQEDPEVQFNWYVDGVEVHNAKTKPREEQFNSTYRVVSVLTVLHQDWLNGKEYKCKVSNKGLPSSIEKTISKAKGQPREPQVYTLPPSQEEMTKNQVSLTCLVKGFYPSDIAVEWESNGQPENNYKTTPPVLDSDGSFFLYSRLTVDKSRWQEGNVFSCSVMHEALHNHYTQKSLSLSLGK
light: B9 light with F90Y
notes: Humanized, human IgG4 / kappa
B12: hz72C1-1.3 (antibody, human IgG4 S228P, kappa)
heavy: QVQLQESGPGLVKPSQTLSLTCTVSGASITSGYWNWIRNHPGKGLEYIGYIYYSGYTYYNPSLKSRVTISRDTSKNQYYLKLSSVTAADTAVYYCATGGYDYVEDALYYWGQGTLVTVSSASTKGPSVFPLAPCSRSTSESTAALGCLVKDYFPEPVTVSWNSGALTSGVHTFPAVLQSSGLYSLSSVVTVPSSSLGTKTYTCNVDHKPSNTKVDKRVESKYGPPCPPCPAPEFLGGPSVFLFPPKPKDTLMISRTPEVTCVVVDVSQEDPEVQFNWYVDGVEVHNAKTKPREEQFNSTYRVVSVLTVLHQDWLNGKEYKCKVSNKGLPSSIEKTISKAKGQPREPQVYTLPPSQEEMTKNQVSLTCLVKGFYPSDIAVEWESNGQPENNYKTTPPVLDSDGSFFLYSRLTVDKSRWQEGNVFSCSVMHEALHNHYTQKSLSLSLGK
light: B9 light
notes: Humanized, human IgG4 / kappa
B13: hz72C1-2.2 (antibody, human IgG4 S228P, kappa)
heavy: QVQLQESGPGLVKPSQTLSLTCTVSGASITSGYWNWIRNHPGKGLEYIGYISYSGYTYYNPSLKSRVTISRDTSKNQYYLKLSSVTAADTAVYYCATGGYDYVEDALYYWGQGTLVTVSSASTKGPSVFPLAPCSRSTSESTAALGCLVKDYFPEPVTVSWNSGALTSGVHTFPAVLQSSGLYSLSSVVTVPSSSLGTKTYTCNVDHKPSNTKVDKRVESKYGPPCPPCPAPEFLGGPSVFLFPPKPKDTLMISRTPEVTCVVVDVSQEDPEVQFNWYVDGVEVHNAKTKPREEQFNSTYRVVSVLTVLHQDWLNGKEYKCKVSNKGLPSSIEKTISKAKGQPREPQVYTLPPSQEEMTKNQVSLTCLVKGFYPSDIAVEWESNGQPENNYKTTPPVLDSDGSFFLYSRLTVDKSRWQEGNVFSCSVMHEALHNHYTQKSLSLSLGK
light: B9 light with F90Y
notes: Humanized, human IgG4 / kappa
B14: hz72C1-2.1 (antibody, human IgG4 S228P, kappa)
heavy: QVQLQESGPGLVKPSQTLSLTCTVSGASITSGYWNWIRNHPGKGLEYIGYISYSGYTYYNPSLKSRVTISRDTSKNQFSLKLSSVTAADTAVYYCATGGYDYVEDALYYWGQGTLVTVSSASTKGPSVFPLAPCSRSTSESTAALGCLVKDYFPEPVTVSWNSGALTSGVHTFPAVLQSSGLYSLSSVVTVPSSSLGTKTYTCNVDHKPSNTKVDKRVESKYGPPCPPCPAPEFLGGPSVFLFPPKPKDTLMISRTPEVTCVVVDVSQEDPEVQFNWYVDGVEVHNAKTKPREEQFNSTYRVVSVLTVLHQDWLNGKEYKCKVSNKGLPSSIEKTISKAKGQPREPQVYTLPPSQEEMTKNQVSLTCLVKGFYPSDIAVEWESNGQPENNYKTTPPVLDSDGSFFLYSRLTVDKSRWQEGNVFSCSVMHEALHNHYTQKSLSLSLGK
light: B9 light with F90Y
notes: Humanized, human IgG4 / kappa

Biological target: T1, IL-36R naturally expressed on OVCAR8 …
Assay: cell-based or functional assay

| Binder | IC50 (M); hIL36α; IL-8 production [M] | IC50 (M); hIL36αβγ; IL-8 production [M] | IC50 (M); hIL36β; IL-8 production [M] | IC50 (M); hIL36γ; IL-8 production [M] | Maximum inhibition rate %; hIL36α; IL-8 production [%] | Maximum inhibition rate %; hIL36αβγ; IL-8 production [%] | Maximum inhibition rate %; hIL36β; IL-8 production [%] | Maximum inhibition rate %; hIL36γ; IL-8 production [%] | IC50; hIL36γ; IL-8 production [pM] |
| --- | --- | --- | --- | --- | --- | --- | --- | --- | --- |
| B1 | 1.6e-11 | 1.42e-11 | 2.45e-11 | 8.12e-12 | 99.6 | 99.9 | 99.1 | 100 | – |
| B2 | 8.48e-12 | 7.24e-12 | 1.06e-11 | 5.29e-12 | 99.5 | 99.3 | 99.2 | 99.6 | – |
| B3 | 1.09e-11 | 3.66e-12 | 5.7e-12 | 6.45e-12 | 99.9 | 99.9 | 99.3 | 99.6 | – |
| B4 | 1.19e-11 | 1.31e-11 | 8.59e-12 | 8.61e-12 | 99.2 | 99.2 | 98.5 | 98.7 | – |
| B5 | 7.52e-12 | 2.58e-12 | 7.24e-12 | 5.15e-12 | 99.5 | 98.8 | 99.1 | 99.3 | – |
| B6 | ~6.47e-12 | ~4.34e-12 | 3.42e-12 | – | 28.4 | 40.6 | 18.6 | 41.5 | 6.2 |
| B7 | 6.45e-12 | 4.01e-12 | 7.06e-12 | 6.62e-12 | 100 | 99.2 | 99.4 | 99.7 | – |

Biological target: T2, Human IL-1Rrp2/IL-1R6 protein, His Tag …
Assay: BLI (ForteBio Octet), antibody on ProA sensor, 1:1 model
Protocol: The affinity of anti-IL-36R antibodies to CynoIL36R-ECD mFc and human IL-1Rrp2/IL-IR6 protein, His Tag (ACROBiosystems, IL2-H52H6) was measured by a ForteBio molecular interaction instrument. […] And then the biosensor was used to bind CynoIL36R-ECD mFc or human IL-1Rrp2/IL-1R6 protein, His Tag which was diluted by a gradient (the initial concentration was 200 nM, 2-fold gradient dilution), the response signals were detected in real time using a Fortebio molecular interaction instrument (SARTORIUS, octet red 96e), and association and dissociation curves were obtained. After the completion of dissociation in each cycle, the biosensor was regenerated for the next capture; the procedure was repeated until the affinity of the different anti-IL-36R antibodies for IL-36R was determined. The resulting data were analyzed by Fortebio Data Analysis 11.0 software in a 1:1 (Langmuir) binding model to determine kₐ (kₒₙ) and kd (koff) values, and the dissociation constant KD was calculated by KD=kd/kₐ. The detection method essentially followed the manufacturer's recommendations, and more information could be found at www.fortebio.com.
Affinity, binding and blocking assays for humanized antibodies hz72C1-1.1, hz72C1-1.2, hz72C1-1.3, hz72C1-2.1, hz72C1-2.2 and hz72C1-2.3 as well as hz84C4-1.1, hz84C4-1.2, hz84C4-1.3, hz84C4-1.4, hz84C4-1.5, hz84C4-2.1, hz84C4-2.2, hz84C4-2.3, hz84C4-2.4 and hz84C4-2.5 were performed according to the methods of Example 4, Example 5. Example 6, Example 7 and Example 8.

| Binder | Kd [pM] | koff [s⁻¹] | kon [M⁻¹ s⁻¹] |
| --- | --- | --- | --- |
| B1 | 245 | 1.57e-05 | 64100 |
| B8 | 736 | 4.38e-05 | 59600 |
| B9 | 35.1 | 3.91e-06 | 111000 |
| B10 | 160 | 1.81e-05 | 113000 |
| B11 | 177 | 1.12e-05 | 63300 |
| B12 | 74.3 | 8.8e-06 | 119000 |
| B13 | < 1 | < 1e-07 | 62400 |
| B14 | 11.1 | 7.81e-07 | 70400 |

Source: US20240270857A1 (CHIA TAI TIANQING PHARMACEUTICAL GROUP, published 2024)
